Experimental data from patent EP4782541A1 (Nanjing Probio Biotech Co., Ltd., dated 2026).

B1: BsAb-17 (bispecific antibody, human IgG1, lambda)
chain: EVQLVESGGGLVQPGGSLRLSCAASGRSFSSFQMGWFRQAPGKEREFVAASGWSGGPTYYWDSVIGRFTISTDNSKNTLYLQMNSLRAEDTAVYYCYEDRVLSGRHVRYWGQGTLVTVSSDKTHTCPPCPAPESTRGPSVFLFPPKPKDTLMISRTPEVTCVVVDVSHEDPEVKFNWYVDGVEVHNAKTKPREEQYNSTYRVVSVLTVLHQDWLNGKEYKCKVSNKALPAPIEKTISKAKGQPREPQVCTLPPSRDELTKNQVSLSCAVKGFYPSDIAVEWESNGQPENNYKTTPPVLDSDGSFFLVSKLTVDKSRWQQGNVFSCSVMHEALHNHYTQKSLSLSPGK
heavy: EVQLVESGGGLVQPGGSLRLSCAASGRSFSSFQMGWFRQAPGKEREFVAASGWSGGPTYYWDSVIGRFTISTDNSKNTLYLQMNSLRAEDTAVYYCYEDRVLSGRHVRYWGQGTLVTVSSGGGGSGGGGSGGGGSEVQLVESGGGLVQPGRSLRLSCAASGFTFNTYAMNWVRQAPGKGLEWVARIRSKYNNYATYYADSVKDRFTISRDDSKSIAYLQMNSLKTEDTAVYYCVRHGNFGNSYVSWFAYWGQGTLVTVSSASTKGPSVFPLAPSSKSTSGGTAALGCLVKDYFPEPVTVSWNSGALTSGVHTFPAVLQSSGLYSLSSVVTVPSSSLGTQTYICNVNHKPSNTKVDKKVEPKSCDKTHTCPPCPAPESTRGPSVFLFPPKPKDTLMISRTPEVTCVVVDVSHEDPEVKFNWYVDGVEVHNAKTKPREEQYNSTYRVVSVLTVLHQDWLNGKEYKCKVSNKALPAPIEKTISKAKGQPREPQVYTLPPCRDELTKNQVSLWCLVKGFYPSDIAVEWESNGQPENNYKTTPPVLDSDGSFFLYSKLTVDKSRWQQGNVFSCSVMHEALHNHYTQKSLSLSPGK
light: QTVVTQEPSLTVSPGGTVTLTCRSSTGAVTTSNYANWVQQKPGQAPRGLIGGTNKRAPGVPARFSGSLLGGKAALTLSGVQPEDEAEYFCALWYSNLWVFGGGTKLTVLGQPKAAPSVTLFPPSSEELQANKATLVCLISDFYPGAVTVAWKADSSPVKAGVETTTPSKQSNNKYAASSYLSLTPEQWKSHRSYSCQVTHEGSTVEKTVAPTECS
B2: BsAb-16 (bispecific antibody, human IgG1, lambda)
chain: EVQLVESGGGLVQPGGSLRLSCAASGRSFSSFQMGWFRQAPGKEREFVAASGWSGGPTYYWDSVIGRFTISTDNSKNTLYLQMNSLRAEDTAVYYCYEDRVLSGRHVRYWGQGTLVTVSSGGGGSGGGGSGGGGSEVQLVESGGGLVQPGGSLRLSCAASGRSFSSFQMGWFRQAPGKEREFVAASGWSGGPTYYWDSVIGRFTISTDNSKNTLYLQMNSLRAEDTAVYYCYEDRVLSGRHVRYWGQGTLVTVSSDKTHTCPPCPAPESTRGPSVFLFPPKPKDTLMISRTPEVTCVVVDVSHEDPEVKFNWYVDGVEVHNAKTKPREEQYNSTYRVVSVLTVLHQDWLNGKEYKCKVSNKALPAPIEKTISKAKGQPREPQVCTLPPSRDELTKNQVSLSCAVKGFYPSDIAVEWESNGQPENNYKTTPPVLDSDGSFFLVSKLTVDKSRWQQGNVFSCSVMHEALHNHYTQKSLSLSPGK
heavy: EVQLVESGGGLVQPGRSLRLSCAASGFTFNTYAMNWVRQAPGKGLEWVARIRSKYNNYATYYADSVKDRFTISRDDSKSIAYLQMNSLKTEDTAVYYCVRHGNFGNSYVSWFAYWGQGTLVTVSSASTKGPSVFPLAPSSKSTSGGTAALGCLVKDYFPEPVTVSWNSGALTSGVHTFPAVLQSSGLYSLSSVVTVPSSSLGTQTYICNVNHKPSNTKVDKKVEPKSCDKTHTCPPCPAPESTRGPSVFLFPPKPKDTLMISRTPEVTCVVVDVSHEDPEVKFNWYVDGVEVHNAKTKPREEQYNSTYRVVSVLTVLHQDWLNGKEYKCKVSNKALPAPIEKTISKAKGQPREPQVYTLPPCRDELTKNQVSLWCLVKGFYPSDIAVEWESNGQPENNYKTTPPVLDSDGSFFLYSKLTVDKSRWQQGNVFSCSVMHEALHNHYTQKSLSLSPGK
light: QTVVTQEPSLTVSPGGTVTLTCRSSTGAVTTSNYANWVQQKPGQAPRGLIGGTNKRAPGVPARFSGSLLGGKAALTLSGVQPEDEAEYFCALWYSNLWVFGGGTKLTVLGQPKAAPSVTLFPPSSEELQANKATLVCLISDFYPGAVTVAWKADSSPVKAGVETTTPSKQSNNKYAASSYLSLTPEQWKSHRSYSCQVTHEGSTVEKTVAPTECS
B3: BsAb-3 (bispecific antibody, human IgG1, lambda)
chain: QVQLVESGGGVVQPGGSLRLSCAASGFVLRVNTVSWYRQAPGKQRELVALITSESNEYYDDSVKGRFTISRDNAKNTIYLHMNSLKPEDTGVYFCNFITTWGQGTQVTVSSDKTHTCPPCPAPESTRGPSVFLFPPKPKDTLMISRTPEVTCVVVDVSHEDPEVKFNWYVDGVEVHNAKTKPREEQYNSTYRVVSVLTVLHQDWLNGKEYKCKVSNKALPAPIEKTISKAKGQPREPQVCTLPPSRDELTKNQVSLSCAVKGFYPSDIAVEWESNGQPENNYKTTPPVLDSDGSFFLVSKLTVDKSRWQQGNVFSCSVMHEALHNHYTQKSLSLSPGK
heavy: EVQLVESGGGLVQPGRSLRLSCAASGFTFNTYAMNWVRQAPGKGLEWVARIRSKYNNYATYYADSVKDRFTISRDDSKSIAYLQMNSLKTEDTAVYYCVRHGNFGNSYVSWFAYWGQGTLVTVSSASTKGPSVFPLAPSSKSTSGGTAALGCLVKDYFPEPVTVSWNSGALTSGVHTFPAVLQSSGLYSLSSVVTVPSSSLGTQTYICNVNHKPSNTKVDKKVEPKSCDKTHTCPPCPAPESTRGPSVFLFPPKPKDTLMISRTPEVTCVVVDVSHEDPEVKFNWYVDGVEVHNAKTKPREEQYNSTYRVVSVLTVLHQDWLNGKEYKCKVSNKALPAPIEKTISKAKGQPREPQVYTLPPCRDELTKNQVSLWCLVKGFYPSDIAVEWESNGQPENNYKTTPPVLDSDGSFFLYSKLTVDKSRWQQGNVFSCSVMHEALHNHYTQKSLSLSPGK
light: QTVVTQEPSLTVSPGGTVTLTCRSSTGAVTTSNYANWVQQKPGQAPRGLIGGTNKRAPGVPARFSGSLLGGKAALTLSGVQPEDEAEYFCALWYSNLWVFGGGTKLTVLGQPKAAPSVTLFPPSSEELQANKATLVCLISDFYPGAVTVAWKADSSPVKAGVETTTPSKQSNNKYAASSYLSLTPEQWKSHRSYSCQVTHEGSTVEKTVAPTECS
notes: also called BsAb-03
B4: BsAb-2 (bispecific antibody, human IgG1, lambda)
chain: EVQLVESGGGLVQPGGSLRLSCAASYFISRFYAVGWYRQAPGKQRELVARISSGGWTYYADSVKGRFTISIDNSKNTLYLQMNSLRAEDTAVYYCNARNLWGQGTLVTVSSDKTHTCPPCPAPESTRGPSVFLFPPKPKDTLMISRTPEVTCVVVDVSHEDPEVKFNWYVDGVEVHNAKTKPREEQYNSTYRVVSVLTVLHQDWLNGKEYKCKVSNKALPAPIEKTISKAKGQPREPQVCTLPPSRDELTKNQVSLSCAVKGFYPSDIAVEWESNGQPENNYKTTPPVLDSDGSFFLVSKLTVDKSRWQQGNVFSCSVMHEALHNHYTQKSLSLSPGK
heavy: EVQLVESGGGLVQPGRSLRLSCAASGFTFNTYAMNWVRQAPGKGLEWVARIRSKYNNYATYYADSVKDRFTISRDDSKSIAYLQMNSLKTEDTAVYYCVRHGNFGNSYVSWFAYWGQGTLVTVSSASTKGPSVFPLAPSSKSTSGGTAALGCLVKDYFPEPVTVSWNSGALTSGVHTFPAVLQSSGLYSLSSVVTVPSSSLGTQTYICNVNHKPSNTKVDKKVEPKSCDKTHTCPPCPAPESTRGPSVFLFPPKPKDTLMISRTPEVTCVVVDVSHEDPEVKFNWYVDGVEVHNAKTKPREEQYNSTYRVVSVLTVLHQDWLNGKEYKCKVSNKALPAPIEKTISKAKGQPREPQVYTLPPCRDELTKNQVSLWCLVKGFYPSDIAVEWESNGQPENNYKTTPPVLDSDGSFFLYSKLTVDKSRWQQGNVFSCSVMHEALHNHYTQKSLSLSPGK
light: QTVVTQEPSLTVSPGGTVTLTCRSSTGAVTTSNYANWVQQKPGQAPRGLIGGTNKRAPGVPARFSGSLLGGKAALTLSGVQPEDEAEYFCALWYSNLWVFGGGTKLTVLGQPKAAPSVTLFPPSSEELQANKATLVCLISDFYPGAVTVAWKADSSPVKAGVETTTPSKQSNNKYAASSYLSLTPEQWKSHRSYSCQVTHEGSTVEKTVAPTECS
notes: also called BsAb-02
B5: BsAb-10 (bispecific antibody, human IgG1, lambda)
chain: EVQLVESGGGLVQPGGSLRLSCAASYFISRFYAVGWYRQAPGKQRELVARISSGGWTYYADSVKGRFTISIDNSKNTLYLQMNSLRAEDTAVYYCNARNLWGQGTLVTVSSDKTHTCPPCPAPESTRGPSVFLFPPKPKDTLMISRTPEVTCVVVDVSHEDPEVKFNWYVDGVEVHNAKTKPREEQYNSTYRVVSVLTVLHQDWLNGKEYKCKVSNKALPAPIEKTISKAKGQPREPQVCTLPPSRDELTKNQVSLSCAVKGFYPSDIAVEWESNGQPENNYKTTPPVLDSDGSFFLVSKLTVDKSRWQQGNVFSCSVMHEALHNHYTQKSLSLSPGK
heavy: EVQLVESGGGLVQPGGSLRLSCAASYFISRFYAVGWYRQAPGKQRELVARISSGGWTYYADSVKGRFTISIDNSKNTLYLQMNSLRAEDTAVYYCNARNLWGQGTLVTVSSGGGGSGGGGSGGGGSEVQLVESGGGLVQPGRSLRLSCAASGFTFNTYAMNWVRQAPGKGLEWVARIRSKYNNYATYYADSVKDRFTISRDDSKSIAYLQMNSLKTEDTAVYYCVRHGNFGNSYVSWFAYWGQGTLVTVSSASTKGPSVFPLAPSSKSTSGGTAALGCLVKDYFPEPVTVSWNSGALTSGVHTFPAVLQSSGLYSLSSVVTVPSSSLGTQTYICNVNHKPSNTKVDKKVEPKSCDKTHTCPPCPAPESTRGPSVFLFPPKPKDTLMISRTPEVTCVVVDVSHEDPEVKFNWYVDGVEVHNAKTKPREEQYNSTYRVVSVLTVLHQDWLNGKEYKCKVSNKALPAPIEKTISKAKGQPREPQVYTLPPCRDELTKNQVSLWCLVKGFYPSDIAVEWESNGQPENNYKTTPPVLDSDGSFFLYSKLTVDKSRWQQGNVFSCSVMHEALHNHYTQKSLSLSPGK
light: QTVVTQEPSLTVSPGGTVTLTCRSSTGAVTTSNYANWVQQKPGQAPRGLIGGTNKRAPGVPARFSGSLLGGKAALTLSGVQPEDEAEYFCALWYSNLWVFGGGTKLTVLGQPKAAPSVTLFPPSSEELQANKATLVCLISDFYPGAVTVAWKADSSPVKAGVETTTPSKQSNNKYAASSYLSLTPEQWKSHRSYSCQVTHEGSTVEKTVAPTECS

Each binder was assayed against T1, human CD3 (on Jurkat cells) (human, UniProt P07766 23-207; P09693 23-182; P04234 22-171) (assay: flow cytometry on Jurkat cells expressing human CD3).
T1 construct: whole, on cells
T1 sequence (P07766 23-207, chain 1 of 3): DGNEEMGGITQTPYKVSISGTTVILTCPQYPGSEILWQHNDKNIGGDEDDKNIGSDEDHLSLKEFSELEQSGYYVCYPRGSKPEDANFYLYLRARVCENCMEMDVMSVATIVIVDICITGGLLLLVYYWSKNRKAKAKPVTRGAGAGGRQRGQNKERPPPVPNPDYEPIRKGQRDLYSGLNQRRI
T1 sequence (P09693 23-182, chain 2 of 3): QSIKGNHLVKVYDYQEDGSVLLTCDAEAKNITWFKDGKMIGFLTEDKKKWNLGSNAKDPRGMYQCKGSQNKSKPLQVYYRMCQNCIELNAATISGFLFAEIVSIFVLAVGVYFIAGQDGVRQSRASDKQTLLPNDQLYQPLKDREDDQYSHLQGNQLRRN
T1 sequence (P04234 22-171, chain 3 of 3): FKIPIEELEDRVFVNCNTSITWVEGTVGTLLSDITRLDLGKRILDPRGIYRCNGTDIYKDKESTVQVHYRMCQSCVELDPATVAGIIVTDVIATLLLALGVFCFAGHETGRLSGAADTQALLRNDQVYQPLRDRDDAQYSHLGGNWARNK
B1 showed an EC50 of 4.02 nM.
In the case of B2, the EC50 is reported as 0.469 nM.
B3 gave an EC50 of 6.66 nM.
With B4 the EC50 was 0.329 nM.
Binder B5 has an EC50 of 2.84 nM.
